Here are results for three molecules from PMC7822796, “Pleiotropic function of the SQUAMOSA PROMOTER-BINDING PROTEIN-LIKE gene TaSPL14 in wheat plant architecture”.

To fix the notation:
T1: GST-TaSPL14 (UniProt A0A3B6LP29 1-396)
T1 sequence: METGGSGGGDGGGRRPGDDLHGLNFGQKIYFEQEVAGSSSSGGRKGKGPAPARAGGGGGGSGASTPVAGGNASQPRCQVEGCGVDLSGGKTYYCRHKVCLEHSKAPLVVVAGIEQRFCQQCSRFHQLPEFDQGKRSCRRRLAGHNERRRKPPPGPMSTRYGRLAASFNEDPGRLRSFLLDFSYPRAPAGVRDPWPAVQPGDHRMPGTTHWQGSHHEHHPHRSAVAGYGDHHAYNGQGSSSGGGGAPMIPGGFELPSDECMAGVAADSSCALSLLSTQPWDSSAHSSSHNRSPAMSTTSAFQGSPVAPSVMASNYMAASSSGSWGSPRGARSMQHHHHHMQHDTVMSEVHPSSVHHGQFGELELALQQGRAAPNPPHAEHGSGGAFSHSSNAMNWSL

B1: TaRAP2.11 promoter probe (dsDNA)
DNA 1: ATGACTTGATGCGGTACAATAATATTAAGC
DNA 2: GCTTAATATTATTGTACCGCATCAAGTCAT
B2: TaERF1 promoter probe (dsDNA)
DNA 1: AGAAAAGAAAAAAGTACGATCATTCCTCGT
DNA 2: ACGAGGAATGATCGTACTTTTTTCTTTTCT
B3: TaEIL1 promoter probe (dsDNA)
DNA 1: GCCAAAACTTTTAGTACAACTTAAGTCTTT
DNA 2: AAAGACTTAAGTTGTACTAAAAGTTTTGGC

For this series, the target named is T1, GST-TaSPL14. In words: EMSA; 10 mM ZnCl2, poly dI-dC; competed by unlabeled probe; EMSA: 1x binding buffer (printed as 100 mM Tris, 500 mM KCl, 10 mM DTT, pH 7.5), 10% glycerol, 0.5 mM EDTA, 10 mM ZnCl2, 50 ng/uL poly dI-dC, 20 uL, 30 min at room temperature, 6% native PAGE. The note with it: protein: recombinant; tags: GST (N-terminal, pGEX6P-1); label: 5' biotin; blunt.
B1: the binding result is recorded as “binds”.

With B2, the binding result was “binds”.

For B3, the binding result is “binds”.
